Assay [1] has as its target T1, Cyno B7H6-His (cynomolgus monkey).
T1 construct: also called CyB7H6; cyB7-H6
T1 chain: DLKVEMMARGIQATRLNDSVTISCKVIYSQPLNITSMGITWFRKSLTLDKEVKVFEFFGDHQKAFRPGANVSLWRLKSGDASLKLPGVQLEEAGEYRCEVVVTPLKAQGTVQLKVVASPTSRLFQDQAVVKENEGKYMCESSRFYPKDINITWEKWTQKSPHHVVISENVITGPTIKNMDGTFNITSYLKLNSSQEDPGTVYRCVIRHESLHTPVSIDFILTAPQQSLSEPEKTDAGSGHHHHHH
The assay can be described thus: ratio of SPR KDs cyno/human. As for the experimental part: (§1) About 700 RU of the B7H6/CD3 binding protein was captured on flow cell 2 of the Protein A/G surface for 60 s at a flow rate of 10 μL/min. The analytes HuB7H6, CyB7H6 and HuB7H1 were injected across both flow cells over captured B7H6/CD3 binding protein for 300 s at a flow rate of 30 μL/min with a dissociation of 1200 s. The concentrations of HuB7H6 and CyB7H6 were 0 nM, 6.25 nM, 12.5 nM, 25 nM, 50 nM and 100 nM. The concentrations of HuB7H1 were 0 nM and 1 μM. The surface was regenerated by injecting 10 mM glycine-HCl, pH 1.5 for 20 s at a flow rate of 30 μL/min across both flow cells.
(§2) The reference flow cell 1 (interactions with sensor surface) and blank (HBS-EP+ or 0 nM analyte) were subtracted from the raw data.
(§3) The B7H6/CD3 binding protein analyte was injected horizontally over the immobilized surface for 300 s at a flow rate of 30 μL/min with a dissociation of 600 s. The concentrations of the B7H6/CD3 binding protein used were 0 nM, 1.2 nM, 3.7 nM, 11.1 nM, 33.3 nM and 100 nM.

Assay [2] has as its target T2, chicken egg white lysozyme (chicken, UniProt P00698 19-147).
T2 construct: unrelated positively charged protein, amine-coupled to the chip; also called Lysozyme (positive)
The assay can be described thus: SPR, 1 µM binder over immobilized lysozyme. How it is done:
(§4) The experiment was performed on a Biacore® T200 SPR system (GE Healthcare Life Sciences). The dilution, surface preparation, and binding experiments were performed at 25° C. in 1×HBS-EP buffer prepared from 10×HBS-EP. The flow rate for both the immobilization protocol and binding experiment was at 5 μL/min.
(§5) To prepare the surface for the non-specific binding experiment, chicken egg white lysozyme and trypsin inhibitor from Glycine max soybean were coupled manually to a Biacore® series S CM5 sensor chip (GE Healthcare sciences) with the surface density of 3000-5000 RU using the amine coupling kit according to the manufacture instructions. Samples were prepared at 1 μM in 1×HBS-EP buffer. The samples were injected over activated surfaces with a 10 min association and 15 min dissociation. The data was collected using Biacore® T200 Control Software version 2.0.1 and analyzed using Biacore® T200 Evaluation Software version 3.0 (GE Healthcare Life Sciences).
(SPR reads the build-up and loss of mass on a sensor chip optically.)

In assay [3] the target is T3, Human CD3 E+G HuFc-6xHis (human).
T3 construct: also called HuCD3E+G-hFc; huCD3
Nature of the assay: SPR, CD3E+G-hFc immobilized, binder analyte. How it is done: To determine the affinity of the B7H6/CD3 binding protein to human and cyno CD3E+G-hFc, the experiment was performed on a Bio-Rad ProteOn™ XPR36 instrument. Briefly, HuCD3E+G-hFc and CyCD3E+G were amine-coupled on a ProteOn™ GLM sensor chip (Bio-Rad) and the B7H6/CD3 binding protein was flowed over the immobilized surface. The running buffer for this experiment and all serial dilutions were prepared in HBS-EP+. The GLM sensor chip was normalized according to Bio-Rad's recommendations. The sensor chip was activated with an equal mixture of EDC/s-NHS in the horizontal direction for 300 s at a flow rate of 30 μL/min HuCD3E+G-hFc was immobilized in the vertical direction at 0.4 μg/mL, 0.2 μg/mL and 0.1 μg/mL in 10 mM acetate pH 4.5 to L1, L2 and L3, respectively, for 300 s at a flow rate of 30 μL/min resulting in about 100 RU of HuCD3E+G-hFc on L1, 40 RU of HuCD3E+G-hFc on L2 and 0 RU of HuCD3E+G-hFc on L3. CyCD3E+G-hFc was immobilized in the vertical direction at 0.4 μg/mL, 0.2 μg/mL and 0.1 μg/mL in 10 mM acetate pH 4.5 to L4, L5 and L6, respectively, for 300 s at a flow rate of 30 μL/min resulting in about 385 RU of […], 170 RU of CyCD3E+G-hFc on L5 and 50 RU of CyCD3E+G-hFc on L6. The sensor chip was deactivated with 1M ethanolamine-HCl in the horizontal direction for 300 s at a flow rate of 30 μL/min.
as §3
The interspot (interactions with sensor surface) and blank (HBS-EP+ or 0 nM analyte) were subtracted from the raw data.

Assay [4] concerns the target T1, Cyno B7H6-His. Nature of the assay: SPR, binder captured on Protein A/G, B7H6 analyte. As for the experimental part: (§6) To determine the affinity of human and cyno B7H6 and human B7H1 to B7H6/CD3 binding proteins, the experiment was performed on a Biacore™ 8K instrument (GE Healthcare Life Sciences). Briefly, the B7H6/CD3 binding protein was captured via Protein A/G. The running buffer for this experiment and all serial dilutions were prepared in HBS-EP+. The CM5 sensor chip was activated with an equal mixture of EDC/NHS across both flow cells for 420 s at a flow rate of 10 μL/min and immobilized with recombinant Protein A/G (50 μg/ml in 10 mM NaOAc, pH 4.5) across all flow cells for 420 s at a flow rate of 10 μL/min resulting in about 2500 RU of Protein A/G on the surface. The sensor chip was deactivated with 1M ethanolamine-HCl across all flow cells for 420 s at a flow rate of 10 μL/min.
as §1, §2

Assay [5] concerns the target T4, Human B7H1 (human, UniProt Q9NZQ7 20-239).
T4 construct: also called HuB7H1; huB7-H1
The assay can be described thus: SPR, binder captured on Protein A/G, HuB7H1 analyte. As for the experimental part:
as §6, §1, §2

For assay [6], the target named is T5, trypsin inhibitor from Glycine max soybean (Glycine max (soybean)).
T5 construct: unrelated negatively charged protein, amine-coupled to the chip
Nature of the assay: SPR, 1 µM binder over immobilized trypsin inhibitor. How it is done:
as §4, §5

A word on the Kd: it is the constant that tells how readily two partners part at equilibrium. Low values mean higher affinity, high ones lower affinity.

T2 sequence (P00698 19-147): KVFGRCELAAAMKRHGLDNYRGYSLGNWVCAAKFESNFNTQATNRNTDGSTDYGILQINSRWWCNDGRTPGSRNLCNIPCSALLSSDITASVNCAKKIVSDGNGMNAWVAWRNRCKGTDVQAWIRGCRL
T3 sequence (chain, as listed by the source limits assumed): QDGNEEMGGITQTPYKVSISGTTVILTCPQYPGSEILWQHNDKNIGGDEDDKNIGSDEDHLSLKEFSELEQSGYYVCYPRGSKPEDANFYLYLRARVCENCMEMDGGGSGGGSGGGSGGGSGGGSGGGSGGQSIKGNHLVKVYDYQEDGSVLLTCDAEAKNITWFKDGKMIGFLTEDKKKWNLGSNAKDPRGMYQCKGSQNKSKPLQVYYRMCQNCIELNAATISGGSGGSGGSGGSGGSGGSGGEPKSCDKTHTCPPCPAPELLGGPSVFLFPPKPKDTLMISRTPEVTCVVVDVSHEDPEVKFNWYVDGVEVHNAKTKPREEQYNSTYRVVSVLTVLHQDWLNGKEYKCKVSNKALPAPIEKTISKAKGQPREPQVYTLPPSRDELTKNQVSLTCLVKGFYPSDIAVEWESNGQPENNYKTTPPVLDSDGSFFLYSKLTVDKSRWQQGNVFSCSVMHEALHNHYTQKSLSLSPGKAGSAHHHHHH
T4 sequence (Q9NZQ7 other isoform, or with tags, fused parts or gaps limits assumed): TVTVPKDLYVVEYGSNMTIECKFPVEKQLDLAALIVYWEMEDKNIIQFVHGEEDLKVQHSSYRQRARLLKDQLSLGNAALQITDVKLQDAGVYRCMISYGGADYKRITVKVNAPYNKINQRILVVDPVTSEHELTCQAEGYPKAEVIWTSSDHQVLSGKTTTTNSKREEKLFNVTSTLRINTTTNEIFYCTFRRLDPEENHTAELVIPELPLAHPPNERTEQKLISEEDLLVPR
T5 sequence (P01070 25-205): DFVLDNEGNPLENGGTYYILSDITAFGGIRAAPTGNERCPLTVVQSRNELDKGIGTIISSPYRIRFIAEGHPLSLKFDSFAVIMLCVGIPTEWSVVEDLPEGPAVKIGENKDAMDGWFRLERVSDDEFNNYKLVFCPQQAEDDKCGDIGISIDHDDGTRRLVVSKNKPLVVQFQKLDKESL

B1: B7H6#17/CD3#1 (bispecific antibody, human IgG1, kappa, lambda, L234A L235A)
chain 1: DIQMTQSPSSLSASVGDRVTITCKASQNVGKYVAWYQQKPGKAPKSLIYSASNRYDGVPSRFSGSGSGTDFTLTISSLQPEDFTTYYCQQYISYPLTFGAGTKLEIKRTVAAPSVFIFPPSDEQLKSGTASVVCLLNNFYPREAKVQWKVDNALQSGNSQESVTEQDSKDSTYSLSSTLTLSKADYEKHKVYACEVTHQGLSSPVTKSFNRGECGGGGSEGKSSGSGSESKSTEGKSSGSGSESKSTGGGGSQVQLVQSGAEVKKPGASVKVSCKASGYTFTSYWMNWMRQAPGQGLEWMGGIYLSGDSTDYNEKFKGRVTMTVDTSTSTVYMELSSLRSEDTAVYYCTRRGDYFGDFWGQGTLVTVSSASTKGPSVFPLAPSSKSTSGGTAALGCLVKDYFPEPVTVSWNSGALTSGVHTFPAVLQSSGLYSLSSVVTVPSSSLGTQTYICNVNHKPSNTKVDKRVEPKSCDKTHTCPPCPAPEAAGGPSVFLFPPKPKDTLMISRTPEVTCVVVDVSHEDPEVKFNWYVDGVEVHNAKTKPREEQYNSTYRVVSVLTVLHQDWLNGKEYKCKVSNKALPAPIEKTISKAKGQPREPQVYTLPPSREEMTKNQVSLWCLVKGFYPSDIAVEWESNGQPENNYKTTPPVLDSDGSFFLYSKLTVDKSRWQQGNVFSCSVMHEALHNHYTQKSLSLSPG
chain 2: EAVVTQEPSLTVSPGGTVTLTCRSSTGAVTTSNYANWVQEKPGQLPRGLIGGTNKRAPWVPARFSGSLLGGKAALTLSGAQPEDEAEYFCALWYSNLWVFGGGTKLTVLGQPKAAPSVTLFPPSSEELQANKATLVCLISDFYPGAVKVAWKADGSPVNTGVETTTPSKQSNNKYAASSYLSLTPEQWKSHRSYSCQVTHEGSTVEKTVAPAECSGGGGSEGKSSGSGSESKSTEGKSSGSGSESKSTGGGGSEVQLVESGGGLVQPGGSLKLSCAASGFTFNTYAMNWVRQAPGKGLEWVARIRSKYNNYATYYADSVKDRFTISRDDSKNTAYLQMNNLKTEDTAVYYCVRHGNFGNSYVSWFAYWGQGTLVTVSAASTKGPSVFPLAPSSKSTSGGTAALGCLVKDYFPEPVTVSWNSGALTSGVHTFPAVLQSSGLYSLSSVVTVPSSSLGTQTYICNVNHKPSNTKVDKRVEPKSCDKTHTCPPCPAPEAAGGPSVFLFPPKPKDTLMISRTPEVTCVVVDVSHEDPEVKFNWYVDGVEVHNAKTKPREEQYNSTYRVVSVLTVLHQDWLNGKEYKCKVSNKALPAPIEKTISKAKGQPREPQVYTLPPSREEMTKNQVSLSCAVKGFYPSDIAVEWESNGQPENNYKTTPPVLDSDGSFFLVSKLTVDKSRWQQGNVFSCSVMHEALHNRFTQKSLSLSPG
notes: scFab-Fc heterodimer, one B7H6 chain and one CD3 chain
On to B1, for which the “cy/hu B7-H6” value in assay [1] was 1. In addition, the “Non-specific binding (RU)” value in assay [2] turned out to be 15.3 RU; in assay [6], 88.4 RU. In addition, the Kd in assay [3] was determined as 13.5 nM; in assay [4], 8.4 nM. For the same molecule, the binding result in assay [5] is recorded as “no binding (tested: 1 µM)”.

B2: B7H6#12/CD3#1 (bispecific antibody, human IgG1, kappa, lambda, L234A L235A)
chain 1: DIQMTQSPSSLSASVGDRVTITCKASQNVGKYVAWYQQKPGKAPKSLIYSASNRYDGVPSRFSGSGSGTDFTLTISSLQPEDFTTYYCQQYISYPLTFGAGTKLEIKRTVAAPSVFIFPPSDEQLKSGTASVVCLLNNFYPREAKVQWKVDNALQSGNSQESVTEQDSKDSTYSLSSTLTLSKADYEKHKVYACEVTHQGLSSPVTKSFNRGECGGGGSEGKSSGSGSESKSTEGKSSGSGSESKSTGGGGSQVQLVQSGAEVKKPGASVKVSCKASGYTFTNYWMNWVKQAPGQGLEWMGGIYLNGDSTDYNEKFKGKATMTVDTSTSTVYMELSSLRSEDTAVYYCTRRGDYFGDFWGQGTLVTVSSASTKGPSVFPLAPSSKSTSGGTAALGCLVKDYFPEPVTVSWNSGALTSGVHTFPAVLQSSGLYSLSSVVTVPSSSLGTQTYICNVNHKPSNTKVDKRVEPKSCDKTHTCPPCPAPEAAGGPSVFLFPPKPKDTLMISRTPEVTCVVVDVSHEDPEVKFNWYVDGVEVHNAKTKPREEQYNSTYRVVSVLTVLHQDWLNGKEYKCKVSNKALPAPIEKTISKAKGQPREPQVYTLPPSREEMTKNQVSLWCLVKGFYPSDIAVEWESNGQPENNYKTTPPVLDSDGSFFLYSKLTVDKSRWQQGNVFSCSVMHEALHNHYTQKSLSLSPG
chain 2: EAVVTQEPSLTVSPGGTVTLTCRSSTGAVTTSNYANWVQEKPGQLPRGLIGGTNKRAPWVPARFSGSLLGGKAALTLSGAQPEDEAEYFCALWYSNLWVFGGGTKLTVLGQPKAAPSVTLFPPSSEELQANKATLVCLISDFYPGAVKVAWKADGSPVNTGVETTTPSKQSNNKYAASSYLSLTPEQWKSHRSYSCQVTHEGSTVEKTVAPAECSGGGGSEGKSSGSGSESKSTEGKSSGSGSESKSTGGGGSEVQLVESGGGLVQPGGSLKLSCAASGFTFNTYAMNWVRQAPGKGLEWVARIRSKYNNYATYYADSVKDRFTISRDDSKNTAYLQMNNLKTEDTAVYYCVRHGNFGNSYVSWFAYWGQGTLVTVSAASTKGPSVFPLAPSSKSTSGGTAALGCLVKDYFPEPVTVSWNSGALTSGVHTFPAVLQSSGLYSLSSVVTVPSSSLGTQTYICNVNHKPSNTKVDKRVEPKSCDKTHTCPPCPAPEAAGGPSVFLFPPKPKDTLMISRTPEVTCVVVDVSHEDPEVKFNWYVDGVEVHNAKTKPREEQYNSTYRVVSVLTVLHQDWLNGKEYKCKVSNKALPAPIEKTISKAKGQPREPQVYTLPPSREEMTKNQVSLSCAVKGFYPSDIAVEWESNGQPENNYKTTPPVLDSDGSFFLVSKLTVDKSRWQQGNVFSCSVMHEALHNRFTQKSLSLSPG
notes: as for B1
As for B2, the “cy/hu B7-H6” value in assay [1] came out at 2.1. The “Non-specific binding (RU)” value is 9.2 RU in assay [2] and 35.4 RU in assay [6]. In addition, the equilibrium dissociation constant (Kd) in assay [3] was found to be 3.6 nM; in assay [4] it was 2.3 nM. Also, in assay [5], the binding result is given as “no binding (tested: 1 µM)”.

These data come from patent US20210107983A1 (Boehringer Ingelheim, published 2021).
